What was measured:
[1] = target: full-length GST–MLV IN(1–408) (murine leukemia virus (MLV)); test: pull-down
[2] = tested on: 6xHis-Brd4(1-720) (human); test: streptavidin bead pull-down, Coomassie, Hill fit; conditions: no added Mg2+; DNA pull-down: 50 mM HEPES pH 7.5, 100 mM NaCl, 0.5% NP40, 2 mM BME, 8.3 uM DNA; HTRF: 25 mM Tris pH 7.4, 150 mM NaCl, 2 mM MgCl2, 0.1% NP40, 1 mg/ml BSA …

Chain of full-length GST–MLV IN(1–408) (murine leukemia virus (MLV)) (P03355 1331-1738 limits assumed): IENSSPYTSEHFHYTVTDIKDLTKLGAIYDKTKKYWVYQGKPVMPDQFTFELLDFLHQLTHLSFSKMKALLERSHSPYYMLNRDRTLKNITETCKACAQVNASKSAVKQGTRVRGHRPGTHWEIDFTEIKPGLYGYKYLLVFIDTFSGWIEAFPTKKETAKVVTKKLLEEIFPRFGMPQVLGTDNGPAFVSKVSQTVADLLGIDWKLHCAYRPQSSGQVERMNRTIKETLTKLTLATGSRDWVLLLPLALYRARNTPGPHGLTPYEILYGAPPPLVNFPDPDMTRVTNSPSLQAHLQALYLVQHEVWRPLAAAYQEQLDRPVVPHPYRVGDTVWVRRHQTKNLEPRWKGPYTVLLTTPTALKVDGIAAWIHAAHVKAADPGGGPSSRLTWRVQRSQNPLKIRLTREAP

Substance	Kd [1] [nM]	Kd [2] [nM]
6xHis–Brd4 B/BID(462–599) (from UniProt O60885 462-599) (domain or fragment)	> 2000	–
6xHis–Brd4 ET(600–678) (from UniProt O60885 600-678) (domain or fragment)	205	–
6xHis–Brd4 ET/SEED(600–720) (from UniProt O60885 600-720) (domain or fragment)	206	–
6xHis–Brd4(1–720) (from UniProt O60885 1-720) (natural protein)	58.4	–
6xHis–cBrd4(462–720) (from UniProt O60885 462-720) (domain or fragment)	77.3	–
6xHis–nBrd4(1–461) (from UniProt O60885 1-461) (domain or fragment)	> 2000	–
40-bp SMYD1 DNA	–	2140

Source: paper PMC4005663
